Measurements reported in paper PMC12499436, “Human Schlafen 14 Cleavage of Short Double‐Stranded RNAs Underpins its Antiviral Activity” (Advanced Science, 2025).
Substitutions are numbered along the chain they refer to. Names may count otherwise.

Columns and labels:
SLFN14mut = molecular target: T1, SLFN14mut (Homo sapiens, UniProt P0C7P3 1-912, E211A;C365S;C775S;C808S); test: cryo-EM structure; 2.88 A; Zn2+ (2 per dimer); no active-site ion density; BLI: PBS, 0.02% P20, 0.1% BSA, 25 C; EMSA: 25 mM HEPES pH 7.5, 50 mM NaCl, 8% glycerol, 2 mM MgCl2, 1 mM DTT, 4 C, 50 nM ssDNA; cryo-EM: RNA in 40 mM Tris-HCl pH 8.0, 20 mM KCl, 4 mM MgCl2, 2 mM DTT, protein:RNA 1:1.2, 4 C overnight; conditions: protein: recombinant; tags: 6xHis-SUMO (N-term); chain copies: 2; hairpin, 12-bp stem, 7-nt loop
T1 sequence: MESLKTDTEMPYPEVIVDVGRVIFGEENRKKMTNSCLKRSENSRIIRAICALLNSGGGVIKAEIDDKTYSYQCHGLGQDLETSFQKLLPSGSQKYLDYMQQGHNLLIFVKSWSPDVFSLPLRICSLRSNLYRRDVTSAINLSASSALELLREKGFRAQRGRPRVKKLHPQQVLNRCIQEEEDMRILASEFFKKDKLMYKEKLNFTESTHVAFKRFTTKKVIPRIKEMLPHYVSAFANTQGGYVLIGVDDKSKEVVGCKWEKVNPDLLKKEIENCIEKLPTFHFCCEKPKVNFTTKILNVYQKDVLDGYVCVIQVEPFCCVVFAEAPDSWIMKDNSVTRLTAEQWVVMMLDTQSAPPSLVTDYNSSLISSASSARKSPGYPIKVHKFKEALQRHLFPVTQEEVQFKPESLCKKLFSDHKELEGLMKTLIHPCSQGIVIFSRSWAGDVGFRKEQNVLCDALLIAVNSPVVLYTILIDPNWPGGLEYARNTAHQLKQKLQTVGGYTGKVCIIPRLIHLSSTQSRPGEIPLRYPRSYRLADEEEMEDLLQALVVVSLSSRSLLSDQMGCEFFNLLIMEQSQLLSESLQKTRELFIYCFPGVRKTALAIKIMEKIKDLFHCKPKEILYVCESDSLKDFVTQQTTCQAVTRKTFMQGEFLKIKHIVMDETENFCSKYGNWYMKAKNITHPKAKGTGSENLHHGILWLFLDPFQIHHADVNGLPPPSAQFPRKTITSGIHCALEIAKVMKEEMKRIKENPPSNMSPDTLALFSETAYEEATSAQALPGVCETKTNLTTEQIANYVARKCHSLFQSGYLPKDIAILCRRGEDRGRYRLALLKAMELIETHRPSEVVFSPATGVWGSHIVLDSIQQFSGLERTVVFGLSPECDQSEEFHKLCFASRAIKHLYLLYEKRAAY

SLFN11 (WT) = molecular target: T2, SLFN11 (WT) (Homo sapiens, UniProt Q7Z7L1 1-901); test: BLI; steady state; kdis 4.8e-4 /s; BLI: PBS, 0.02% P20, 0.1% BSA, 25 C; EMSA: 25 mM HEPES pH 7.5, 50 mM NaCl, 8% glycerol, 2 mM MgCl2, 1 mM DTT, 4 C, 50 nM ssDNA; cryo-EM: RNA in 40 mM Tris-HCl pH 8.0, 20 mM KCl, 4 mM MgCl2, 2 mM DTT, protein:RNA 1:1.2, 4 C overnight; conditions: protein: recombinant; tags: Strep-II-SUMO (N-term); chain copies: 2
T2 sequence: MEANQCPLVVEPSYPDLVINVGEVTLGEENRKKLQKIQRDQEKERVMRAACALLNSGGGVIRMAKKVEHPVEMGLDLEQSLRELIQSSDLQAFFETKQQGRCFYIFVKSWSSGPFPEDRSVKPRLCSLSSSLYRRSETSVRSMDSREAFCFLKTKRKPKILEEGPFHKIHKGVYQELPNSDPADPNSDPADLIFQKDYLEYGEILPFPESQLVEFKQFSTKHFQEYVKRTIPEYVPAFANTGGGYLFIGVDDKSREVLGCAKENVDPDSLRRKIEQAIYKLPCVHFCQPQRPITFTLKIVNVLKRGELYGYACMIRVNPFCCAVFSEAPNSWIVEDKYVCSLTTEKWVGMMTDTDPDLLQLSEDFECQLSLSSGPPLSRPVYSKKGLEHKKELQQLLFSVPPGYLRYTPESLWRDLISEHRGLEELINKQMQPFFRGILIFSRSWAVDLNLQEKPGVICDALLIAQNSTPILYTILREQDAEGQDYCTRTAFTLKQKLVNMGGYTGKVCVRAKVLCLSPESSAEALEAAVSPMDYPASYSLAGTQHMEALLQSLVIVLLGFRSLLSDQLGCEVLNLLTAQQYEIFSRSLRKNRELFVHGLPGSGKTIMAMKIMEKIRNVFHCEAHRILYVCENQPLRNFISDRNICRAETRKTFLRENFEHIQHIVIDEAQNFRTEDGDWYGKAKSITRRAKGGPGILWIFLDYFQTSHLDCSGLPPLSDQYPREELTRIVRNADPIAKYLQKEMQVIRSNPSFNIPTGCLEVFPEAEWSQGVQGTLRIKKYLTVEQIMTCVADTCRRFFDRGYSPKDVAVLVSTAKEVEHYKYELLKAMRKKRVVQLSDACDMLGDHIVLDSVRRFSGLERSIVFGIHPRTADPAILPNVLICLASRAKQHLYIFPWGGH

SLFN14 (WT) = molecular target: T3, SLFN14 (WT) (Homo sapiens, UniProt P0C7P3 1-912); test: BLI; steady state; kdis 1.3e-3 /s; BLI: PBS, 0.02% P20, 0.1% BSA, 25 C; EMSA: 25 mM HEPES pH 7.5, 50 mM NaCl, 8% glycerol, 2 mM MgCl2, 1 mM DTT, 4 C, 50 nM ssDNA; cryo-EM: RNA in 40 mM Tris-HCl pH 8.0, 20 mM KCl, 4 mM MgCl2, 2 mM DTT, protein:RNA 1:1.2, 4 C overnight; conditions: protein: recombinant; tags: Strep-Strep-SUMO (N-term); chain copies: 2
T3 sequence: T1 sequence with A211E, S365C, S775C, S808C

[1] = molecular target: the molecule itself; test: SEC; recombinant strep-strep-SUMO tagged SLFN14 in solution with 150 mM NaCl; gel-filtration standards
[2] = molecular target: the molecule itself; test: cryo-EM structure; apo SLFN14^mut, single-particle analysis, 2.84 Å

GCAUCAGCUACCUAAAGUUCAGGUAGCUGAUG (structured_RNA) [short hairpin RNA (hRNA)]
binding result (SLFN14mut): binds

AATTGGTCGTAGCAAGCTCTAGCACCGCTTAAACGCACGTACGCGCTGTC (ssDNA) [50-nt ssDNA (BLI)]
Kd (SLFN11 (WT)): 37 nM
Kd (SLFN14 (WT)): 9 nM

B1: human SLFN14, wild type (strep-strep-SUMO tagged) (enzyme, UniProt P0C7P3 1-912, looked up)
chain: T1 sequence with A211E, S365C, S775C, S808C
notes: human Schlafen 14 (SLFN14), Gene ID 342618, wild type, codon-optimised gene; also called WT-SLFN14; Schlafen 14; source: HEK293F, transiently transfected, purified (Strep-Tactin, SEC); not shown: strep-strep, N-terminal, kept; SUMO, N-terminal, kept
stoichiometry N [1]: 2

B2: SLFN14 E211A-C365S-C775S-C808S (SLFN14^mut) (enzyme, human, UniProt P0C7P3 1-912, looked up)
chain: T1 sequence
notes: human Schlafen 14 (SLFN14), Gene ID 342618, full length, with four mutations introduced for cryo-EM; No tag cleavage is described in the purification; also called apo SLFN14; SLFN14 apoenzyme; source: Sf21 (baculovirus, pFastBac1), purified (Ni-NTA, heparin, SEC)
binding result [2]: binds
